Legend:
Human TLR4/MD-2 complex = target: T1, Human TLR4/MD-2 complex (human, UniProt O00206 24-631; Q9Y6Y9 19-160); experiment: SPR; Biacore T200; TLR4/MD-2 amine-coupled on CM5 (~1200 RU); HMGB1 isoforms injected at 30 μL/min for 60 s, 25 °C, dissociation 1 min; HBS-EP pH 7.4 (10 mM hepes, 150 mM NaCl, 3 mM EDTA, 0.05% P20); 1:1 binding supposed; apparent KD; conditions: both partners purified
T1 construct: Toll-like receptor 4 (TLR4), human, chain of the bought TLR4/MD-2 complex; Myeloid Differentiation factor 2 (MD-2), human, chain of the bought TLR4/MD-2 complex; No catalogue number printed; also called TLR4/MD-2 receptor; source: bought: R&D Systems
T1 sequence (O00206 24-631, chain 1 of 2): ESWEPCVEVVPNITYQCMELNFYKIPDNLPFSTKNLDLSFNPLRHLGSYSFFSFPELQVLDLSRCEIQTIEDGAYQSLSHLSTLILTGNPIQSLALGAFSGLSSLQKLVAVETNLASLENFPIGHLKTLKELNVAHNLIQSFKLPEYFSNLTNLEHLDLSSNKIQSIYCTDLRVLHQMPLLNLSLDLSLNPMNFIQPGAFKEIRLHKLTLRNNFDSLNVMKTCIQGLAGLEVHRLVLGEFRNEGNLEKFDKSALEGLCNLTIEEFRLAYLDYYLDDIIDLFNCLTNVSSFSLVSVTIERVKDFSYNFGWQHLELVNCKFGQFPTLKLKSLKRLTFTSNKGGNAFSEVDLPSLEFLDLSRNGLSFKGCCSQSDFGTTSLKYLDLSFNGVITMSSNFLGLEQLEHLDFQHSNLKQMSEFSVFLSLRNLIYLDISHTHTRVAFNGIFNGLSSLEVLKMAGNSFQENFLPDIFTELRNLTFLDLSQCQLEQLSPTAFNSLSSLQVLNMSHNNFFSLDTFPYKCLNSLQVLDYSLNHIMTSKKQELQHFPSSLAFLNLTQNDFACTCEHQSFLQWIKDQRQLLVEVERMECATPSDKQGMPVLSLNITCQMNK
T1 sequence (Q9Y6Y9 19-160, chain 2 of 2): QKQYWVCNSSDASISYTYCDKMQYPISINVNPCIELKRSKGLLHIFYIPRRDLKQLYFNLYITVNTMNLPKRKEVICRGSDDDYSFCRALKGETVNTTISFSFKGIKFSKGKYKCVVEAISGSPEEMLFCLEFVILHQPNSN

human TLR4 = target: T2, human TLR4 (human, UniProt O00206 24-631); experiment: SPR; Biacore T200; rhTLR4 amine-coupled on CM5 (~800 RU); HMGB1 isoforms injected at 30 μL/min for 60 s, 25 °C, dissociation 1-2 min; HBS-EP pH 7.4; 1:1 binding supposed; apparent KD; conditions: both partners purified
T2 construct: Toll-like receptor 4 (TLR4), recombinant human (rhTLR4); No catalogue number printed; also called rhTLR4; Toll-like receptor 4; source: bought: R&D Systems
T2 sequence (O00206 24-631): as the sequence (O00206 24-631, chain 1 of 2) above

Kd (Human TLR4/MD-2 complex) | fold faster association rate than the other isoforms (Human TLR4/MD-2 complex) | kon (Human TLR4/MD-2 complex) | Kd (human TLR4) | Binder
0.42 ± 0.01 µM | 10 fold | 286000 M⁻¹ s⁻¹ |  | disulfide HMGB1 (High Mobility Group Box 1) (natural protein, UniProt P63159 1-215, looked up, disulfide bond between C23 and C45, High Mobility Group Box 1 (HMGB1), single 215-amino acid polypeptide; neither is stated here; also called disulfide HMGB1 isoform; intact HMGB1; source: E. coli, purified to homogeneity) MGKGDPKKPRGKMSSYAFFVQTCREEHKKKHPDASVNFSEFSKKCSERWKTMSAKEKGKFEDMAKADKARYEREMKTYIPPKGETKKKFKDPNAPKRPPSAFFLFCSEYRPKIKGEHPGLSIGDVAKKLGEMWNNTAADDKQPYEKKAAKLKEKYEKDIAAYRAKGKPDAAKKGVVKAEKSKKKKEEEDDEEDEEDEEEEEEEEDEDEEEDDDDE
3.93 ± 0.01 µM |  |  |  | DTT reduced HMGB1 (natural protein, UniProt P63159 1-215, looked up, cysteines reduced with DTT (no C23-C45 disulfide), High Mobility Group Box 1 (HMGB1), 215 amino acids, reduced form; Prepared as in Yang et al. 2012 (cited); Same protein as m1 in another redox state; source: E. coli, purified to homogeneity, then reduced with DTT) MGKGDPKKPRGKMSSYAFFVQTCREEHKKKHPDASVNFSEFSKKCSERWKTMSAKEKGKFEDMAKADKARYEREMKTYIPPKGETKKKFKDPNAPKRPPSAFFLFCSEYRPKIKGEHPGLSIGDVAKKLGEMWNNTAADDKQPYEKKAAKLKEKYEKDIAAYRAKGKPDAAKKGVVKAEKSKKKKEEEDDEEDEEDEEEEEEEEDEDEEEDDDDE
3.02 ± 0.02 µM |  |  | 4.2 ± 0.09 µM | non-oxidizable HMGB1 3S mutant (natural protein, UniProt P63159 1-215, looked up, HMGB1 in which all three cysteines (C23, C45, C106) are replaced by serines; Commercial protein; also called 3S mutant HMGB1; source: provided by HMGBiotech (Milan, Italy)) MGKGDPKKPRGKMSSYAFFVQTSREEHKKKHPDASVNFSEFSKKSSERWKTMSAKEKGKFEDMAKADKARYEREMKTYIPPKGETKKKFKDPNAPKRPPSAFFLFSSEYRPKIKGEHPGLSIGDVAKKLGEMWNNTAADDKQPYEKKAAKLKEKYEKDIAAYRAKGKPDAAKKGVVKAEKSKKKKEEEDDEEDEEDEEEEEEEEDEDEEEDDDDE
